# Laboratory results reported in paper PMC1839166, “Type III Effector Activation via Nucleotide Binding, Phosphorylation, and Host Target Interaction” (PLoS Pathogens, 2007).
# B1: RIN4_(142–176) (peptide, UniProt Q8GYN5 142-176, looked up)
# peptide: PEKVTVVPKFGDWDENNPSSADGYTHIFNKVREER
# notes: the last four residues are printed as REER; residues 150-172 are modelled in the structure; also called RIN4 peptide
# Legend:
# [1] = target: T1, avirulence protein B (AvrB), wild type (Pseudomonas syringae pv. glycinea, UniProt P13835 1-321); assay: ITC; VP-ITC microcalorimeter; RIN4_(142–176) peptide (50 to 450 μM) titrated in 6-μl injections into 5 to 25 μM wild-type or variant AvrB, stirring at 255 rpm; wild-type AvrB 6 μM with full-length RIN4 120 μM; nonbinding confirmed at as much as 25 μM and 450 μM; settings: both partners purified
# T1 construct: AvrB (avirulence protein B), type III effector of Pseudomonas syringae pv. glycinea; residues 26-53 and 56-321 are modelled in the AvrB/RIN4 structure; also called wild-type AvrB; source: E. coli BL21 Rosetta (pProEX-HTa), purified (nickel column, TEV digestion, Source Q, Sephacryl S200 if needed); not shown: His tag, N-terminal, cleaved
# [2] = target: T2, AvrB^QRY/AAA (Pseudomonas syringae pv. glycinea, UniProt P13835 1-321, QRY/AAA (Q208, R209, and Y210 to alanine)); assay: as above; settings: both partners purified
# T2 construct: AvrB (avirulence protein B), Pseudomonas syringae pv. glycinea; also called triple mutation of Q208, R209, and Y210 to alanine; source: E. coli BL21 Rosetta, purified (glutathione column, TEV digestion, Source Q); not shown: GST, N-terminal, cleaved
# T2 sequence: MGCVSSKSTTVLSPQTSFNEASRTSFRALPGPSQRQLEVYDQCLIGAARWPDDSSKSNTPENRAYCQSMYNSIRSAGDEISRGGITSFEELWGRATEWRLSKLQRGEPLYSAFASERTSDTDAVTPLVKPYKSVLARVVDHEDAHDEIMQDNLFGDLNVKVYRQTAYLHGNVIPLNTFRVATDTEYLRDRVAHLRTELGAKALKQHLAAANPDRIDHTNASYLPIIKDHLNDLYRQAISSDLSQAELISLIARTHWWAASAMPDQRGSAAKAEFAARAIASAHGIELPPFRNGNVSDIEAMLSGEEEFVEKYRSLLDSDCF
# T1 sequence (P13835 whole entry, the tested form may be a part): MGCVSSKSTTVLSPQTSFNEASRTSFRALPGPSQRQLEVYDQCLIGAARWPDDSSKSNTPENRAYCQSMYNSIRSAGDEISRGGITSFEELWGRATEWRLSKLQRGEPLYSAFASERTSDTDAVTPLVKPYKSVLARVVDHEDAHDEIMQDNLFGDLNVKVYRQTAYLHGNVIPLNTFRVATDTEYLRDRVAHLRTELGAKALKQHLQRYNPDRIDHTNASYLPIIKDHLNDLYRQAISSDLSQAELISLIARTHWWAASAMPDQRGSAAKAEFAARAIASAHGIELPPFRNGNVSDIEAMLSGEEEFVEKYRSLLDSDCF
binder,measurement,setting,value
B1,Kd,[1],3 µM
same,Kd,[2],9 µM
